Source: the DeepSol protein solubility set

Test: soluble on expression in E. coli; label from the status in PepcDB or PDB records

Soluble on expression in E. coli, soluble:
MSLNNKVLVTGGTGFVGMRIISRLLEQGYEVQTTIRDLSKADKVIKTMQDNGISTERLMFVEADLSQDEHWDEAMKDCKYVLSVASPVFFGKTDDAEVMAKPAIEGIQRILRAAEHAGVKRVVMTANFGAVGFSNKDKNSITNESHWTNEDEPGLSVYEKSKLLAEKAAWDFVENENTIVEFATINPVAIFGPSLDAHVSGSFHLLENLLNGSMKRVPQIPLNVVDVRDVAELHILAMTNEQANGKRFIATADGQINLLEIAKLIKEKRPEIAQKVSTKKLPDFILSLGAKFNHQAKEGKLLLDMNRNVSNERAKTLLGWEPIATQEEAILAAIDSMAKFHLIEGHHHHHH
MSLNIVTLISWDFKRNNESFQRAIINGYDYWSRILDDHGVEKYVILLTCNRVELYYRGDPFDVQEKGYNIISDDMAINHLFHVAAGLDSMSIGENEVLKQVKQAYEKSSSMGKSDKFLSLIFQRAISVGKLVRSKTGIGKGKVSIPSIVYDIVRKNGGNKILLVGNGMLASEIAPYFSYPQYKVTVAGRNIDHVRAFAEKYEYEYVLINDIDSLIKNNDVIITATSSKTPIVEERSLMPGKLFIDLGNPPNIERGNNVITLDEIYEISKKNEMLREEKINQAEILIENEMKATMNKIKDLMIDDIFSQFYRFASVVQTMEIQKFRKMHPEVNENDLEALAHSIINKILNVPVTTLKAVSRSQGNSDFNRLFESFSSNFNDIVSAALQSYEGLRDTQSLRDRTRQLLQKSEGHHHHHH
MVVLNPNNWHWVDKNTLPWSKDYLNGKLTSLSTVSSDGKSKIELTQVSSITGDSNVSQRKGKPICYFDLQLSMNVKVTNLDTNKDDEDDDGILADGKLEIPEFMHDESDIPILSQGFDAFDGLVRSEFVPKVVETLLKYQDDLIKEHSKDIQV
MEYSHLIPEASHAQTSFGLLYMWANDYEYGVFIDDDTLPHEDADFFGTHMSNLAFEGEIETVSSDEQWVNVLYQNEDEHGLYPRGYPYAAMDETVATEATQVNDVVASQGLWTNVPDLDAVRILMDGDLQGQAQTRTSGADFGDDFVAAEGQYLTVCSMNLAFRREVIPAFYQLPMDDNEWDVGRFDDIWSGVFLKRACDVLGKQIYNGDPLCEHNKAPRSTFSDLTNEVHGLELNEHVWEIVDEAGADADSYAEVFDAIATAMADGDFSDWENGAFLNYCGEFMLDWLECLDELDAAATELEHHHHHH
MKKCNIMIVGVGGQGTLLASRIIGNVALKQNYDVKVSEVHGMSQRGGSVVTYVKIGDKVYSPIIEKGEADIIMAFEMLEALRWAEYLKEDGKLLVNEQKINPMPVIIGKEKYPENIMQMLKENYKNVISLDALKIARECKNIKAVNTVLIGLLAKVLEIDKEVWIESIKEVVPSKAVDVNLKAFEEGYSRG
MAESYEEWKSFALKLDEETGAQEWKFDNSSPYFDAELISYRYTLLKRYRQQHRTLDLIYLLKEGLTYDIANIGHPMLFAATHVGTKKLIEDYIEEVSQSLAYIASSECITFQRKEKIEFFENCEKAYGQPALMFSGGATLGLFHTGVCKALIEQDLMPKVLSGSSAGAIMTGMLGISASEDIQNLLNGEQFFSDAFHFRKLRELIKGNGGIADVHYLKKFLIENLGDLTFEEAFKKSGLNINVAVAPYDATENPRIMNAIMTPNVLVWSAVLASCAVPVLFPPVRLTSKRYDGEHTPYMANTKWVDGSVRSDFPQERMARLYNLNYTIASQVNPHVVPFMQDDARRFRKDVLSWPERILRRQGKVLSMGLMDFTRQRLGAISPVRRLLDHGYGVVGQRYYGDVNIIAKYSLKHYAYTLQNPRPHLFKRLQREGERATWPKISSIETHARIGKTIQHCLEVLRFEEKKQQPESYYAEALEHHHHHH
MEESSAAKIQLLKEFKFEKILKDDTKSKIITLYGKIRNEVALLLLEKTAFDLNTIKLDQLATFLQDTKLVENNDVFHWFLSTNFQDCSTLPSVKSTLIWPASETHVYKYSSQKKPMVCETPLMYLKVTKPFIETQRGPQIQWVENILTHKAEAERIVVEDPDPLNGFIVIPDLKWDRQTMSALNLMAIVHATDIASIRDLKYKHIPLLENIRNKVLTEVPKQFSVDKNQLKMFVHYLPSYYHLHVHILHVDHETGDGSAVGRAILLDDVIDRLRNSPDGLENVNITFNIGEQHFLFQPLTNMNA

Soluble on expression in E. coli, not soluble:
MNTGHHKVADTLIDFLHRQFPWVESKKIDFLSYCNELMEKMVSGAYLRWIRSHPASYHRVYKTFMYEESLRLEFVSFEPWLPYFEGKMKKMLEQERPDLIVCTHSFPSRILQQLKRKKVLAIPVVNVYTDFFMNSIWGKRFIDYHFVPHQEAKRELIVKHGIDERRIVVTGIPVHDTFMKAAALEHHHHHH
MKITKLETVRVAERTNLLWVLVHTDEGITGLGETFFGAETVETYVHEYIAPRVIGRDPLQIDLLAQDLVGYLGFRSSGAEVRGNSAFDIALWDIFGKATNQPIAQLLGGFSRREIRTYNTCAGTEYIKKATGQQTANYGLSGGKDYDDLNGFLHRADELAHSLLEDGITAMKIWPFDAAAEKTRGQYISMPDLKSALEPFEKIRKAVGDKMDIMVEFHSMWQLLPAMQIAKALTPYQTFWHEDPIKMDSLSSLTRYAAVSPAPISASETLGSRWAFRDLLETGAAGVVMLDISWCGGLSEARKIASMAEAWHLPVAPHDCTGPVVLCASTHLSLNAPNALVQESVRAFYKTWYRDLVTALPEVKNGMITVPPGAGLGMELHPDIEKTFTVSRRFSDAASI
MFYITSKKVPFVTYSKNVFIPVTNICRNQCGYCGFRREPGQPGARLMKPEEVISVLENGVRAGCTEALFTFGERAEEVPGYGEMLEEIGYSSTLEYLVFLCETAIDIGILPHTNAGIMTRSELEALKPLNASMGLMLESTAVLAAHKDCPGKIPERRLETIREAGKLKIPYTTGLLIGIGESRDDRIESLEAIAALHREYGHIQEVIIQNFAPKPGTEMENFPEPAVEEMMDSVELAARILPGDVAVQVAPNLIDPKSLIAKGVTDLGGISPLTIDWINPEAEWPDVKNLQKKLGDIPLKERLPVYPPYVKKGWYSERIGSLIKRLSDNSGYLEHHHHHH
MAPPEGGEYLHKVTANSMSVNGDVPETVTAALADQRVEGRVCLEAGAGVGNTTAGLLAAGAKRVYAVTNDADHAATVRDRIGDRNADRLAVIEADLRATPLATDSVDLVAAHGLCNVLPPAELAPIAAELTRVAKPDGCLVVDDYAVPPADAAVNRLFALENAAARVVDGRPVLTFYPPAVLVAVFAANGWSVERRKTLLNPVPWTEAHLDAHAEVVREYAAALPDSLGEPLTAMAEDLVAAIGSERTGTMYSLAFRRADA
MGSDKIHHHHHHMSEDQKRILEQQLWNIANTLRGKMNADEFRDYILGFIFYKYLSEKMEIFANDILKQDKISFREITPKLKQGKEYLEAIREEALEKLGYFLKPEELFSEVAKRGRGSNDEGENFDEAKTNFILEDLQKILINIQLSTMGTDSEEDFDNLFEDMDLNSTKLGKTPDARNAIIAKVLTHLDKIDFKLEDLESDVLGDSYEYLIGQFASGAGKKAGEFYTPQQVSKILAKIVTTEKHKLKSVYDPTCGSGSLLLRVAREVKDVAKFYGQEMNRTTYNLARMNMILHGVHYRKFDIKQEDTLEHPQHMGQQFEAIVANPPFSAQWSANPLHLSDDRFSQYGKLAPASKADYAFVQHMVHHLAENGIMALVLPHGVLFRGGAEQHIRKYLIEQKNYLDAVIGLPGNIFYGTSIPTCILVIKKCREMPDNILFIDASKEFEKVKTQNILREKHIDKIVDTYRSRKEIEKYSHCASLKEIAENDFNLNIPRYVDTFEEEEEIDIQAVMAEIKNLEAKRTDLDKQIDVYMKELGLVF
TQVYKAKFGTPNRGWVIIVHGLGEHSGRYSKLVSMLVNEGYAVYTFDWPGHGKSPGKRGHTSVEEAMEIIDFIIEEINDKPFLFGHSLGGLTVIRYAETRPEKIRGVIASSPALAKSPKTPSFMVALAKILGVLLPSLTLSNGIDPNLLSRNPDAVKRYIEDPLVHDRISAKLGRSIFKNMDLAHREAHKIKVPVLLLVGTGDVITPPEGARKLYGEIKVEDKEIVEFEGAYHEIFEDPEWGEEFHKKIVEWIKKH
MIVTLLGTGDSPGTPILNCHCRTCEDARRKGWERKRFSVMVQNNGKTVLIDTSPDLRRQLLDCGVEKVDAVIWTHCHFDHFGGFGEFYRVQNNVKVYSTPQIHEDIGHFMKFMSYKPVEVEAFENFTIAGMDFTLLPVNHPPVSAVGVKVEWKGYKVVVSGDTNVRIPEATLREMQNPDLLIVEALAPTGRFRKHMNAKEALELAKRLNAGKVVLTHLGHFFPPHHLAIKSYPVGEDYQSFSFGEGRLDEFFGDLEHHHHHH
MGSDKIHHHHHHMSCIDCAVKNCNKMDKTYPDFCLTTHMDEEVLNEAMECYNEDENRKVTIAAAEVEYENYCKHTRVEEIMDFAKKINAKKIGIATCVGLLKESRILADILRRHGFEVYGVGCKAGTQKKTSVGIPECCEGVGVNMCNPILQAKLLNKAKTDLNVVVGLCVGHDSLFYKYSEALTTTAVTKDRVLGHNPVAALYTADSYYSKLKKSEEE
MNLHVKTLSLMTWRSRFLEESFWSLEETAALAKQLPLKSPSENIFLHIVDLSDPKQIWKFVENFKQEHKLHVLINNAGCMVNKRELTEDGLEKNFAANTLGVYILTTGLIPVLEKEHDPRVITVSSGGMLVQKLNTNDLQSERTPFDGTMVYAQNKRQQVVLTERWAQGHPAIHFSSMHPGWADTPDRNEQELRKVVGEAQTASPLPRFLEIMMHEGKCQPQGHSSNDLEACWSSGGGEQNSLPDWPHQLHDLRQLTWALCSSFLLYKQGN
MEIEDGFYLIDDSNHDEDLDFSDFPWLDPDHPLFFPATQANNSKGSTRWDAVNKFSVENWYPHLRKHTFKSHFITLNYNDIHYLMGNIPPDYDSSKLESIFNKILSEFNNKEVFMRLSTRSPKDSKFLFEEASTIMSKDFVYWNENDNKHQQLVSFVASMLKAMKIKSGRKIIETIAQSPRVYNDLLALVSSSNQSDCTTNVILREWHDIRPDHEFRVFVSRRHRKESIVTAISQYFHFLYFDKSPADCFNFLDEEDKKAVIKKFENYVLKSVDPDVAKFLNFSSEQDDDESSDCIREYIVDLALIPVSQYHGEITDENIIEIGANTYVMVVIELNPFAPAATGSGLEHHHHHH
MEGNFSNRVQDVIRLSREEALRLGHDYIGTEHLLLGLIREGEGIGAKILKNLKVDLFQLKQKIEENTHPKVPATQMGNVPLTKQAEKVLKITYLEAKICKSTIIGTEHLLLSILKGDDNIAAQILEQFGVTYDQVRDELMTITT
FEQEGRDVALDYRWMPYKRISTNLKKALIASEDARFAGHGGFDWGGIQNAIRRNRNSGKVKAGGSTISQQLAKNLFLNESRSYIRKGEEAAITAMMEAVTDKDRIFELYLNSIEWHYGVFGAEAASRYFYQIPAAKLTKQQAAKLTARVPAPLYYADHPKSKRLRNKTNIVLKRMGSAELPESDTD
MEIQFLGTGAGVPAKHRNVTGIALKLLDERNAVWLFDCGEGTQLQILKSSIRPRKIEKIFITHLHGDHIFGLPGLLSSRSFQGGTEPLEIYGPVGIADFVKTSLRVSQSRLSYPLKFIELTKENDVIFKDKQFTVRCNILDHGITSFGYRIEEAAHEGELQVEKLQALGIPSGPLYGKLKRGETIVFDGQEINGQAFVGERKPGRIVTILGDTRKTKNSVTLARRADVLVHESTFNKHEAKMAKAYFHSTSQQAAEVAKEAQVKQLILTHISARYLTKEAYQLQEEAQEIFPNTKIVKDMDIIEIPFANEGGA
MFFIRTAGLRDIEPVRTLLATTWHATYDAIYGADKVNELIAVWHSPQAMKDRVEKKGGEFLVADDGKRIGGMAYGSMSTKMAKTALLHQLYVAPDLQRQGVGRDLFAELETCFPDAEIMRLEVEPKNTVAIAFYEGVGFVEVDRIERMAGIEGLPGIVMEKSLTR
